In data set [1] the target is S-formylglutathione hydrolase (SfSFGH) from Shewanella frigidimarina (Shewanella frigidimarina). Description: AUC; SfSFGH in 150 mM NaCl, 20 mM Tris-HCl pH 8.0, 20 °C, 40,000 rpm, monitored at 280 nm, analysed with SEDFIT.
Substrate in data set [2]: CC(=O)Oc1ccc([N+](=O)[O-])cc1
Description: purified protein. The format is biochemical, Shewanella frigidimarina. To be noted: 20 mM Tris-HCl pH 8.0, 120 mM NaCl, room temperature.

Substrate in data set [3]: CCCC(=O)Oc1ccc([N+](=O)[O-])cc1
Briefly: purified protein. Type of data set: biochemical, Shewanella frigidimarina. As to conditions: 20 mM Tris-HCl pH 8.0, 120 mM NaCl, room temperature.

Substrate in data set [4]: CCCCCCCC(=O)Oc1ccc([N+](=O)[O-])cc1
Briefly: purified protein. As to conditions: 20 mM Tris-HCl pH 8.0, 120 mM NaCl, room temperature. Type of data set: biochemical, Shewanella frigidimarina.

The results in this text go back to PMC6699074, “Structural and functional characterization of a novel cold-active S-formylglutathione hydrolase (SfSFGH) homolog from Shewanella frigidimarina, a psychrophilic bacterium” (Microbial Cell Factories, 2019).

As a reminder, the stoichiometry N is the number of molecules, sites or subunits per partner or assembly. Usually Vmax stands for the top rate of the reaction or transport when substrate is in excess. As usually defined, the kcat/Km is the turnover number divided by the Michaelis constant.

On to “S-formylglutathione hydrolase (SfSFGH) from Shewanella frigidimarina (enzyme)”, for which, in data set [1], the stoichiometry N turned out to be 2.

B1: SfSFGH (Shewanella frigidimarina NCIMB 400) (protein)
chain: MTIENMSVNKSFGGWHKQYSHQSQTLNCEMRFAIYLPPQASSGKKVPVLYWLSGLTCTDENFMQKAGAQALAAELGIAIVAPDTSPRGENVADDEGYDLGKGAGFYVNATQAPWNRHYRMYDYVVDELPKLIESMFPVSDKRSIAGHSMGGHGALVIALRNADAYQSVSAFSPISNPINCPWGKKALTAYLGRDSATWMEYDASVLMRQATQFVPALVDQGDADNFLVEQLKPEVLEAAAKVKGYPLELNYREGYDHSYYFISSFIENHLRFHAEHLGK
In the case of B1, in data set [2], the Km was 515 (± 42.8) µM and the kcat is given as 0.310 (± 0.0258) s^-1.

B2: SfSFGH (Shewanella frigidimarina NCIMB 400; W182A) (protein)
chain: MTIENMSVNKSFGGWHKQYSHQSQTLNCEMRFAIYLPPQASSGKKVPVLYWLSGLTCTDENFMQKAGAQALAAELGIAIVAPDTSPRGENVADDEGYDLGKGAGFYVNATQAPWNRHYRMYDYVVDELPKLIESMFPVSDKRSIAGHSMGGHGALVIALRNADAYQSVSAFSPISNPINCPAGKKALTAYLGRDSATWMEYDASVLMRQATQFVPALVDQGDADNFLVEQLKPEVLEAAAKVKGYPLELNYREGYDHSYYFISSFIENHLRFHAEHLGK
With B2, in data set [2], the Km came out at 1.393 ± 0.136 mM, the Vmax came to 323 µM/min, the kcat turned out to be 1.85 ± 0.092 s⁻¹ and the kcat/Km amounted to 1300 M⁻¹ s⁻¹. For the same molecule, in data set [3], the Km came to 303 ± 49 µM, the maximum rate (Vmax) came to 51.7 µM/min, the kcat stood at 8 ± 0.326 s⁻¹ and the kcat/Km is 26400 M⁻¹ s⁻¹. In data set [4], the Km amounted to 495 ± 85 µM, the Vmax is 28.6 µM/min, the kcat came out at 0.144 ± 0.007 s⁻¹ and the kcat/Km is 300 M⁻¹ s⁻¹.
